Patent publication US6887705B1, “Tyrosine phosphorylated cleavage furrow-associated proteins (PSTPIPs)” (Genentech, Inc., priority 1997, dated 2005)
Substitutions are numbered along the chain they refer to. In names and notes the source's numbering stands.

Target: T1, PTP HSCF (Mus musculus, UniProt Q61152)
T1 construct: the PST (and C-terminal homolog) of PTP HSCF (amino acids 304-453); made in house; host or cells: E. coli DH5-alpha
T1 sequence (Q61152 304-453): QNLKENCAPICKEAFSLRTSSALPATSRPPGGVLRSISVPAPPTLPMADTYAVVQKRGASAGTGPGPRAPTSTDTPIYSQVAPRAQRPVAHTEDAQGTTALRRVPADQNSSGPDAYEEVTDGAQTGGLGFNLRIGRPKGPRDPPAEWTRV
Test: In vitro GST pull-down binding of PST PIP forms to PTP HSCF
Conditions: for precipitation of in vitro translated PTP HSCF by GST fusions of PSTPIP or its domains: ~1 microgram per ml GST fusion protein
Description: The binding was carried out according to the method of Wong and Johnson (Wong et al., J. Biol. Chem. 271(35):20981-20984 (1996)). Briefly, 1 μg of plasmid with either the PSTPIP protein or PTP HSCF under the control of the Sp6 promoter was in vitro transcribed/translated using the Promega™ TnT Rabbit Reticulocyte™ system. Samples were diluted in 50 mM HEPES, pH 7.2, 1% triton X 100, 10% glycerol, 100 mM NaCl, 5 mM EDTA and 2 μg/ml each of leupeptin, pepstatin, aprotinin, and PMSF. […] This was reacted for 1 hour at 4° C. and then the resin washed 6 times in HEPES/Triton binding buffer before SDS gel electrophoresis. The peptides were synthesized on an automated Milligen 9050 Peptide Synthesizer using standard solid phase chemistry with FMOC protected amino acids on a p-alkoxybenzyl alcohol resin. Dried peptides were re-suspended in the HEPES/Triton Binding buffer at a concentration of 10 mg/ml. Peptide inhibition was performed by adding the peptide first to the in vitro translation product and then the GST-fusion followed by the GSH-Sepharose. The binding/washing steps were as previously described. The peptides synthesized and the PTPs they were derived from were: • PXXP-HSCF: 432[…]451 (PTP HSCF) (SEQ ID NO:20), • PXXP-PEP: 782GFGNRFSKPKGPRNPPSAW800 (PTP PEP) (SEQ ID NO:21), • PXXP-PEST: 761[…]780 (PTP PEST) SEQ ID NO:22), • PXXP-CONTROL: 334[…]353 (PTP HSCF) (SEQ ID NO:23).
In vitro binding analyses between various PTP HSCF and PST PIP constructs were performed as previously described (Spencer et al, (1997), supra). Briefly, plasmids were transcribed and translated in vitro using the TnT Rabbit Reticulocyte Lysate System (Promega). Samples were diluted in 50 mM HEPES, pH 7.2, 1% triton X-100, 10% glycerol, 100 mM NaCl, and 2 μg/ml each of leupeptin, pepstatin, aprotinin and PMSF (lysis buffer). Samples were than reacted with GST fusion proteins at various concentrations, and the bound proteins were centrifuged using glutathione-sepharose beads and analyzed on SDS polyacrylamide gels. C-terminally-derived peptide inhibition studies were performed by incubating the GST fusion protein binding reactions in the presence of 10 μg/ml of the indicated peptides. Peptides were produced by FMOC-protected amino acids as previously described (Spencer et al, (1997), supra). In vivo interactions between various forms of PTP HSCF and PST PIP were also performed as previously described (Spencer et al, (1997), supra). Briefly, COS cells were transfected with various constructs, and after 48 hours, lysates were prepared and immunoprecipitated with antibodies to either the FLAG epitope contained at the C-terminus of PST PIP or an HA epitope contained at the N-terminus of PTP HSCF. The resultant blots were probed with anti-FLAG to detect PST PIP, anti-HA to detect PTP HSCF or anti-phosphotyrosine to detect levels of this modified amino acid in each protein.

With “SH3 region: GST fusion containing the SH3 domain of PSTPIP” the “precipitation of in vitro translated PTP HSCF by GST fusions of PSTPIP or its domains” value was “not the SH3 region”.

“amino acids 1-264 of the coiled coil domain: form of PST PIP containing amino acids 1-264” was tested, and the “binding of in vitro translated PST PIP forms to GST fusion of C-terminal 149 amino acids of PTP HSCF” value (“binding” below) was “binding of PTP HSCF could be obtained”.

In the case of “coiled coil domain: GST fusion containing the coiled coil domain of PSTPIP”, the “precipitation of in vitro translated PTP HSCF by GST fusions of PSTPIP or its domains” value is reported as “mediated by the coiled coil domain”.

B1: I122MD: PST PIP clustered alanine substitution starting at I122 (protein)
chain: MMAQLQFRDAFWCRDFTAHTGYEVLLQRLLDGRKMCKDVEELLRQRAQAEERYGKELVQIARKAGGQTEMNSLRTSFDSLKQQTENVGSAHIQLALALREELRSLEEFRERQKEQRKKYEAAAARVQKSKLSLYKKTMESKKAYDQKCRDADDAEQAFERVSANGHQKQVEKSQNKAKQCKESATEAERVYRQNIEQLERARTEWEQEHRTTCEAFQLQEFDRLTILRNALWVHCNQLSMQCVKDDELYEEVRLTLEGCDVEGDINGFIQSKSTGREPPAPVPYQNYYDREVTPLIGSPSIQPSCGVIKRFSGLLHGSPKTTPSAPAASTETLTPTPERNELVYASIEVQATQGNLNSSAQDYRALYDYTAQNSDELDISAGDILAVILEGEDGWWTVERNGQRGFVPGSYLEKLDYKDDDDK
In the case of B1, the “binding” value is reported as “either no or a minor change in the binding activity”.

B2: D38VE: PST PIP clustered alanine substitution starting at D38 (protein)
chain: B1 chain with D38A, V39A, E40A, A122I, A123M, A124D
With B2 the “binding” value was “either no or a minor change in the binding activity”.

B3: E159RV: PST PIP clustered alanine substitution starting at E159 (protein)
chain: B1 chain with A122I, A123M, A124D, E159A, R160A, V161A
For B3, the “binding” value was “either no or a minor change in the binding activity”.

B4: E110RQ: PST PIP clustered alanine substitution starting at E110 (protein)
chain: B1 chain with E110A, R111A, Q112A, A122I, A123M, A124D
B4 was tested, and the “binding” value was “either no or a minor change in the binding activity”.

B5: F221: PST PIP with phenylalanine 221 mutated to alanine (protein)
chain: B1 chain with A122I, A123M, A124D, F221A
For B5, the “binding” value was “no effect on PTP HSCF binding was observed”.

B6: L224: PST PIP with leucine 224 mutated to alanine (protein)
chain: B1 chain with A122I, A123M, A124D, L224A
For B6, the “binding” value was “no effect on PTP HSCF binding was observed”.

B7: R62K: PST PIP clustered alanine substitution starting at R62 (protein)
chain: B1 chain with R62A, K63A, A122I, A123M, A124D
With B7 the “binding” value was “either no or a minor change in the binding activity”.

B8: N86VG: PST PIP clustered alanine substitution starting at N86 (protein)
chain: B1 chain with N86A, V87A, G88A, A122I, A123M, A124D
For B8, the “binding” value was “either no or a minor change in the binding activity”.

B9: Q169VE: PST PIP clustered alanine substitution starting at Q169 (protein)
chain: B1 chain with A122I, A123M, A124D, Q169A, V170A, E171A
B9 was tested, and the “binding” value was “either no or a minor change in the binding activity”.

B10: D145QK: PST PIP clustered alanine substitution starting at D145 (protein)
chain: B1 chain with A122I, A123M, A124D, D145A, Q146A, K147A
For B10, the “binding” value was “either no or a minor change in the binding activity”.

B11: E50ER: PST PIP clustered alanine substitution starting at E50 (protein)
chain: B1 chain with E50A, E51A, R52A, A122I, A123M, A124D
For B11, the “binding” value was “either no or a minor change in the binding activity”.

B12: L133YK: PST PIP clustered alanine substitution starting at L133 (protein)
chain: B1 chain with A122I, A123M, A124D, L133A, Y134A, K135A
B12 was tested, and the “binding” value was “either no or a minor change in the binding activity”.

B13: R99EE: PST PIP clustered alanine substitution starting at R99 (protein)
chain: B1 chain with R99A, E100A, E101A, A122I, A123M, A124D
In the case of B13, the “binding” value is reported as “either no or a minor change in the binding activity”.

B14: tryptophan at position 205: PST PIP with tryptophan 205 mutated to alanine (protein)
chain: MMAQLQFRDAFWCRDFTAHTGYEVLLQRLLDGRKMCKDVEELLRQRAQAEERYGKELVQIARKAGGQTEMNSLRTSFDSLKQQTENVGSAHIQLALALREELRSLEEFRERQKEQRKKYEAIMDRVQKSKLSLYKKTMESKKAYDQKCRDADDAEQAFERVSANGHQKQVEKSQNKAKQCKESATEAERVYRQNIEQLERARTEAEQEHRTTCEAFQLQEFDRLTILRNALWVHCNQLSMQCVKDDELYEEVRLTLEGCDVEGDINGFIQSKSTGREPPAPVPYQNYYDREVTPLIGSPSIQPSCGVIKRFSGLLHGSPKTTPSAPAASTETLTPTPERNELVYASIEVQATQGNLNSSAQDYRALYDYTAQNSDELDISAGDILAVILEGEDGWWTVERNGQRGFVPGSYLEKL
modifications: Mus Musculus
notes: PST PIP with tryptophan 205 mutated to alanine
For B14, the “binding” value was “no effect on PTP HSCF binding was observed”.
